T1: 67LR 161-170 peptide
T1 construct: Synthetic peptide coated on the ELISA plate at 10 ug/mL; also called ESM peptide; EGCG sensing motif (ESM)
T1 peptide: IPCNNKGAHS

T2: Control peptide
T2 construct: Coated on the ELISA plate at 10 ug/mL
T2 peptide: MNAANVGWNGSTFA


Key:
67LR 161-170 peptide = target: T1, 67LR 161-170 peptide; assay: ELISA of hybridoma culture supernatant on coated 67LR 161-170 peptide
Control peptide [1] = target: T2, Control peptide; assay: ELISA, peptide coated at 10 ug/mL, HRP anti-mouse IgG, absorbance at 405 nm
[2] = target: 67 kDa laminin receptor protein (human, UniProt P08865 2-295); assay: cell-based or functional assay
Control peptide [3] = target: T2, Control peptide; assay: ELISA, peptide coated at 10 ug/mL, done as for ESM-8

binding result (67LR 161-170 peptide)	binding result (Control peptide [1])	acidic sphingomyelinase activity in HL60 cells (TLC of BODIPY-C12-sphingomyelin), relative to Control mIgG [2] [times]	binding result (Control peptide [3])	Binder
binds	no binding	~3		ESM-8 antibody (ESM-8 monoclonal antibody) (antibody, V domains shown, it was detected with anti-mouse IgG and compared with Control mIgG; also called monoclonal antibody ESM-8; EMS-8 antibody) VH: QVQLKQSGPGLVQPSQSLSITCTVSGFSLTTYGVHWVRQSPGKGLEWLGVIWSGGNTDYNAAFMSRLSISKDNSKSQVFFKMNSLRTTDTAIYYCARNSLLLPFDVWGAGTTVTVSS VL: DVVMTQTPLSLPVSLGDQASISCRSSQSLVHSNGYTYLHWYLQKPGQSPKLLIYKVSNRFSGVPDRFSGSASGTDFTLKISRVEAEDLGVYFCSQSTHVPWTFGGGTKLEIK
binds			no binding	ESM-16 antibody (ESM-16 monoclonal antibody) (antibody, V domains shown, Mouse hybridoma antibody; in flow cytometry it was detected with goat anti-mouse IgM and compared with Isotype Control mIgM, which points to IgM; also called monoclonal antibody ESM-16; EMS-16 antibody) VH: EVMLVESGGGLVKPGGSLKLSCAASGFTFSSYAMSWVRQTPEKRLEWVATISSGGSYTYYPDSVKGRFTISRDNAKNTLYLQMSSLRSEDTAMYYCARNWDLDYWGQGTTLTVSS VL: DIVMTQSPATLSVTPGDRVSLSCRASQSISDYLHWYQQKSHESPRLLIKYASQSISGIPSRFSGSGSGSDFTLSINSVEPEDVGVYYCQNGHSFPYTFGGGTKLEIK

Reference: patent WO2014208760A1 (dated 2014)
